Results: patent US20140274782A1, “AFFINITY REAGENTS AND METHODS FOR DETECTION, PURIFICATION, AND PROTEOMIC ANALYSIS OF METHYLATED PROTEINS” (The Board of Trustees of the Leland Stanford Junior …, priority 2013, published 2014)

What was measured:
[1] = biological target: C1QTNF6-C1q and tumor necrosis factor related protein 6 (C1QTNF6), transcript variant 1 (human) (UniProt Q9BXI9); assay: ProtoArray, GST-treated control array
[2] = biological target: CDK10-cyclin-dependent kinase (CDC2-like) 10 (CDK10), transcript variant a (human) (UniProt Q15131); assay: ProtoArray, GST-treated control array
CDK10-cyclin-dependent kinase (CDC2-like) 10 (CDK10), transcript variant a (human), sequence (Q15131 whole entry, change not shown): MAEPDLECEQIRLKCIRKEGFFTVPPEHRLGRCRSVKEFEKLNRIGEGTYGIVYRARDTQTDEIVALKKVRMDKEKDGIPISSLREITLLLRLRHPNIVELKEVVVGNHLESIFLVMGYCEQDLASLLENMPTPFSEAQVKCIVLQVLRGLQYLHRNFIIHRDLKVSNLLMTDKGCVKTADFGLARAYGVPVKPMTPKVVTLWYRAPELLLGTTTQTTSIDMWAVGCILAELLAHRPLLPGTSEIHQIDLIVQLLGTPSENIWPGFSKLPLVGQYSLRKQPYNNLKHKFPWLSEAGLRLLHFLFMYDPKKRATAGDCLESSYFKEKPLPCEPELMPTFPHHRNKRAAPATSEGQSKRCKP

[3] = biological target: CRB3-crumbs homolog 3 (Drosophila) (CRB3), transcript variant 2 (human) (UniProt Q9BUF7); assay: ProtoArray, GST-treated control array
CRB3-crumbs homolog 3 (Drosophila) (CRB3), transcript variant 2 (human), sequence (Q9BUF7 27-120, change not shown): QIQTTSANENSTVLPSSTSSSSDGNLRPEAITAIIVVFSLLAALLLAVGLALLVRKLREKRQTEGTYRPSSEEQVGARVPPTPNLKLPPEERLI

[4] = biological target: DYNC2LI1-dynein, cytoplasmic 2, light intermediate chain 1, mRNA (cDNA clone MGC:12166 IMAGE:3828551), complete cds (human) (UniProt Q8TCX1); assay: ProtoArray, GST-treated control array
[5] = biological target: GPX5-glutathione peroxidase 5 (epididymal androgen-related protein) (GPX5), transcript variant 2, mRNA. (human) (UniProt O75715); assay: ProtoArray, GST-treated control array
GPX5-glutathione peroxidase 5 (epididymal androgen-related protein) (GPX5), transcript variant 2, mRNA. (human), sequence (O75715 other isoform, or with tags, fused parts or gaps mutant): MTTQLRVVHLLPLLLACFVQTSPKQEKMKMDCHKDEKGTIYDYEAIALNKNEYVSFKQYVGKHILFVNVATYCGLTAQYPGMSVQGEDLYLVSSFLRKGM

[6] = biological target: GYPC-glycophorin C (Gerbich blood group) (GYPC), transcript variant 2 (human) (UniProt P04921); assay: ProtoArray, GST-treated control array
GYPC-glycophorin C (Gerbich blood group) (GYPC), transcript variant 2 (human), sequence (P04921 other isoform, or with tags, fused parts or gaps mutant): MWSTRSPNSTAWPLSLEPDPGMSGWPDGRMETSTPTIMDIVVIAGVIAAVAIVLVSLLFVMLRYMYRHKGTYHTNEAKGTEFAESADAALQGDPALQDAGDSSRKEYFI

[7] = biological target: LPAL2-lipoprotein, Lp(a)-like 2 (LPAL2), transcript variant 1 (human) (UniProt Q16609); assay: ProtoArray, GST-treated control array
LPAL2-lipoprotein, Lp(a)-like 2 (LPAL2), transcript variant 1 (human), sequence (Q16609 22-132, change not shown): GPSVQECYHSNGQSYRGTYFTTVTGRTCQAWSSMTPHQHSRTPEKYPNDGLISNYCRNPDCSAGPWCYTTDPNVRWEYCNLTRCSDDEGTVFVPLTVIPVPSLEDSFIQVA

[8] = biological target: MRPL21-mitochondrial ribosomal protein L21 (MRPL21), nuclear gene encoding mitochondrial protein, transcript variant 1 (human) (UniProt Q7Z2W9); assay: ProtoArray, GST-treated control array
[9] = biological target: NME1-non-metastatic cells 1, protein (NM23A) expressed in (NME1), transcript variant 2 (human) (UniProt P15531); assay: ProtoArray, GST-treated control array
NME1-non-metastatic cells 1, protein (NM23A) expressed in (NME1), transcript variant 2 (human), sequence (P15531 whole entry, change not shown): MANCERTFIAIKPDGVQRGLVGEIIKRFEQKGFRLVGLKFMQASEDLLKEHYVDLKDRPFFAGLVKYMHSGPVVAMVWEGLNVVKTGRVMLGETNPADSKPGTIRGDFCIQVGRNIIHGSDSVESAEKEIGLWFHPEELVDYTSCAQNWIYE

[10] = biological target: NME7-non-metastatic cells 7, protein expressed in (nucleoside-diphosphate kinase) (NME7), transcript variant 2 (human) (UniProt Q9Y5B8); assay: ProtoArray, GST-treated control array
NME7-non-metastatic cells 7, protein expressed in (nucleoside-diphosphate kinase) (NME7), transcript variant 2 (human), sequence (Q9Y5B8 37-376, change not shown): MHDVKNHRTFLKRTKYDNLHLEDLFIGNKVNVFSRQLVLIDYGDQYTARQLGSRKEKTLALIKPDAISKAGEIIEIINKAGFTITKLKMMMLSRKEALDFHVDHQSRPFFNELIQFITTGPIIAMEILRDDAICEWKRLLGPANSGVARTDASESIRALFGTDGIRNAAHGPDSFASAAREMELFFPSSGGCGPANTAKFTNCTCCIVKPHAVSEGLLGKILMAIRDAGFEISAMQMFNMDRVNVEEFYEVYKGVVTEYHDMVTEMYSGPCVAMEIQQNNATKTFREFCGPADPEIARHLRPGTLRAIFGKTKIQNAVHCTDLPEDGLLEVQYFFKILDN

[11] = biological target: PHF20L1-PHD finger protein 20-like 1 (PHF20L1), transcript variant 3 (human) (UniProt A8MW92); assay: ProtoArray, GST-treated control array
PHF20L1-PHD finger protein 20-like 1 (PHF20L1), transcript variant 3 (human), sequence (A8MW92 other isoform, or with tags, fused parts or gaps mutant): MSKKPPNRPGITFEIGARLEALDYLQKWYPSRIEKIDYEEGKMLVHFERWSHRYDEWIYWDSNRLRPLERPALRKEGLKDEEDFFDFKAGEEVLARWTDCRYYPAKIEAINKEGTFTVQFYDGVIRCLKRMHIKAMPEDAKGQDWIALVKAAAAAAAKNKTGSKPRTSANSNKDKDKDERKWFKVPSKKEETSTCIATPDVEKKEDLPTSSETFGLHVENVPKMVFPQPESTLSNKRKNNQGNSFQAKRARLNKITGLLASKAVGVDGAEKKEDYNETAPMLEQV

[12] = biological target: RTN1-reticulon 1 (RTN1), transcript variant 3 (human) (UniProt Q16799); assay: ProtoArray, GST-treated control array
[13] = biological target: TEAD4-TEA domain family member 4 (TEAD4), transcript variant 3 (human) (UniProt Q15561); assay: ProtoArray, GST-treated control array
[14] = biological target: VPS29-vacuolar protein sorting 29 homolog (S. cerevisiae) (VPS29), transcript variant 1 (human) (UniProt Q9UBQ0); assay: ProtoArray, GST-treated control array
[15] = biological target: ZNF695-zinc finger protein 695 (ZNF695) (human) (UniProt Q8IW36); assay: ProtoArray, GST-treated control array
[16] = biological target: AP1S1, G9a-methylated (human) (UniProt P61966); assay: ProtoArray methylated with G9a SET domain
AP1S1, G9a-methylated (human), sequence (P61966 whole entry, the tested form may be a part): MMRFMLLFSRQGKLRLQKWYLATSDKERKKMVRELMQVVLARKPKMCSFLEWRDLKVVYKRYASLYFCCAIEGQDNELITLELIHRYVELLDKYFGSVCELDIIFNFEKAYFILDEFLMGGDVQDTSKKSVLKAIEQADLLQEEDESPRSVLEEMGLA

[17] = biological target: C10orf83, G9a-methylated (human) (UniProt Q8NDC4); assay: ProtoArray methylated with G9a SET domain
C10orf83, G9a-methylated (human), sequence (Q8NDC4 whole entry, the tested form may be a part): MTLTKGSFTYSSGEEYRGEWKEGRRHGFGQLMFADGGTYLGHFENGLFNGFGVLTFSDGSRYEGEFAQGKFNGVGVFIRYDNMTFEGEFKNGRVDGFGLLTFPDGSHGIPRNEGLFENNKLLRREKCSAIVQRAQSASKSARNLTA

[18] = biological target: C12orf23, G9a-methylated (human) (UniProt Q8WUH6); assay: ProtoArray methylated with G9a SET domain
[19] = biological target: CCL24, G9a-methylated (human) (UniProt O00175); assay: ProtoArray methylated with G9a SET domain
[20] = biological target: CDKL5, G9a-methylated (human) (UniProt O76039); assay: ProtoArray methylated with G9a SET domain
[21] = biological target: CMTM3, G9a-methylated (human) (UniProt Q96MX0); assay: ProtoArray methylated with G9a SET domain
CMTM3, G9a-methylated (human), sequence (Q96MX0 whole entry, the tested form may be a part): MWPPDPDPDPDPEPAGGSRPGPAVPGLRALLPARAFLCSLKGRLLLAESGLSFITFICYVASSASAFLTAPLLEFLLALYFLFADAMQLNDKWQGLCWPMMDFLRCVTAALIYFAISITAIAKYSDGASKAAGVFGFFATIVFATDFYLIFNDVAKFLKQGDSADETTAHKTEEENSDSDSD

[22] = biological target: CTSZ, G9a-methylated (human) (UniProt Q9UBR2); assay: ProtoArray methylated with G9a SET domain
CTSZ, G9a-methylated (human), sequence (Q9UBR2 24-303 limits assumed): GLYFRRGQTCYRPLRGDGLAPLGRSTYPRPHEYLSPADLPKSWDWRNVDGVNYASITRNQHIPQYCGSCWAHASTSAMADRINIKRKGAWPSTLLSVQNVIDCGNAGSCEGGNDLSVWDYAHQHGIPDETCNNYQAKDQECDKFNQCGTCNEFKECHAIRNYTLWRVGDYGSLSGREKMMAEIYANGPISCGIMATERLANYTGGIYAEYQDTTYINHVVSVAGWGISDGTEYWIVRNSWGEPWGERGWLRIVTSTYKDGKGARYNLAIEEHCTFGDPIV

[23] = biological target: DYNC2LI1, G9a-methylated (human) (UniProt Q8TCX1); assay: ProtoArray methylated with G9a SET domain
[24] = biological target: GGPS1, G9a-methylated (human) (UniProt O95749); assay: ProtoArray methylated with G9a SET domain
GGPS1, G9a-methylated (human), sequence (O95749 whole entry, the tested form may be a part): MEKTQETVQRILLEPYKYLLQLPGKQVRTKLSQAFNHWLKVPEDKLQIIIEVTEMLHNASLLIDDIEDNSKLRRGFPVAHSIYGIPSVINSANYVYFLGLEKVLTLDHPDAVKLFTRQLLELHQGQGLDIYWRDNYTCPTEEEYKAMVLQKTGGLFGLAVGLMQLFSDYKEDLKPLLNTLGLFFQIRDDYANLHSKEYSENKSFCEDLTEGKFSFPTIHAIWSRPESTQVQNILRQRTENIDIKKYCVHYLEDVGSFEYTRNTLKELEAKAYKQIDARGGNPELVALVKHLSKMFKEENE

[25] = biological target: GHRL, G9a-methylated (human) (UniProt Q9UBU3); assay: ProtoArray methylated with G9a SET domain
GHRL, G9a-methylated (human), sequence (Q9UBU3 24-117 limits assumed): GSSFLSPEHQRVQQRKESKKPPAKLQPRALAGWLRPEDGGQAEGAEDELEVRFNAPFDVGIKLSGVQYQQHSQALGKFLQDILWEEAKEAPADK

[26] = biological target: GNPTAB, G9a-methylated (human) (UniProt Q3T906); assay: ProtoArray methylated with G9a SET domain
[27] = biological target: GPR108, G9a-methylated (human) (UniProt Q9NPR9); assay: ProtoArray methylated with G9a SET domain
[28] = biological target: GPX1, G9a-methylated (human) (UniProt P07203); assay: ProtoArray methylated with G9a SET domain
GPX1, G9a-methylated (human), sequence (P07203 whole entry, the tested form may be a part): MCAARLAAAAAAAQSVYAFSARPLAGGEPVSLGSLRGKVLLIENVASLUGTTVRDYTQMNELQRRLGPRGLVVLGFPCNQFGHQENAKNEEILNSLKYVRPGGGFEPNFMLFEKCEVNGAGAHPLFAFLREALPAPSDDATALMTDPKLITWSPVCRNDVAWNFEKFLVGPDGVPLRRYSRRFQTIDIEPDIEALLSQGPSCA

[29] = biological target: GPX5, G9a-methylated (human) (UniProt O75715); assay: ProtoArray methylated with G9a SET domain
[30] = biological target: KCTD7, G9a-methylated (human) (UniProt Q96MP8); assay: ProtoArray methylated with G9a SET domain
KCTD7, G9a-methylated (human), sequence (Q96MP8 whole entry, the tested form may be a part): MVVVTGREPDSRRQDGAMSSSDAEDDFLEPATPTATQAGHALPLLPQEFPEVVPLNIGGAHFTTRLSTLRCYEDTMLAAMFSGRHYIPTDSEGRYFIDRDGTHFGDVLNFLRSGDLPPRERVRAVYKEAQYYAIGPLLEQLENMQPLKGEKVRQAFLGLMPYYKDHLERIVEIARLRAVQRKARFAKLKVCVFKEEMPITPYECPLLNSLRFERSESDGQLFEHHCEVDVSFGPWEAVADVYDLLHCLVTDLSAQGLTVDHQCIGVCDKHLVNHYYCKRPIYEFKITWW

[31] = biological target: LPAL2, G9a-methylated (human) (UniProt Q16609); assay: ProtoArray methylated with G9a SET domain
LPAL2, G9a-methylated (human), sequence (Q16609 22-132 limits assumed): as the sequence (Q16609 22-132, change not shown) above

[32] = biological target: LRRC20, G9a-methylated (human) (UniProt Q8TCA0); assay: ProtoArray methylated with G9a SET domain
LRRC20, G9a-methylated (human), sequence (Q8TCA0 whole entry, the tested form may be a part): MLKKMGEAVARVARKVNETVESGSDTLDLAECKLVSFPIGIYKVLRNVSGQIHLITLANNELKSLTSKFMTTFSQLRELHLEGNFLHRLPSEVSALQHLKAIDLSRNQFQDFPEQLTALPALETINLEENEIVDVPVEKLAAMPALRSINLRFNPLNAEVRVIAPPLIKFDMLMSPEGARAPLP

[33] = biological target: LTC4S, G9a-methylated (human) (UniProt Q16873); assay: ProtoArray methylated with G9a SET domain
LTC4S, G9a-methylated (human), sequence (Q16873 whole entry, the tested form may be a part): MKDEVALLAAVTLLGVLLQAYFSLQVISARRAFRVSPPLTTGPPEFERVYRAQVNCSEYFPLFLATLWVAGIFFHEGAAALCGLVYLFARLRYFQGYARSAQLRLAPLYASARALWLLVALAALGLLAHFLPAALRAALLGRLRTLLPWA

[34] = biological target: PAEP, G9a-methylated (human) (UniProt P09466); assay: ProtoArray methylated with G9a SET domain
[35] = biological target: PHF20L1, G9a-methylated (human) (UniProt A8MW92); assay: ProtoArray methylated with G9a SET domain
PHF20L1, G9a-methylated (human), sequence (A8MW92 other isoform, or with tags, fused parts or gaps limits assumed): as the sequence (A8MW92 other isoform, or with tags, fused parts or gaps mutant) above

[36] = biological target: PPARG, G9a-methylated (human) (UniProt P37231); assay: ProtoArray methylated with G9a SET domain
[37] = biological target: RPL14, G9a-methylated (human) (UniProt P50914); assay: ProtoArray methylated with G9a SET domain
[38] = biological target: SERPINB2, G9a-methylated (human) (UniProt P05120); assay: ProtoArray methylated with G9a SET domain
[39] = biological target: SMAP1, G9a-methylated (human) (UniProt Q8IYB5); assay: ProtoArray methylated with G9a SET domain
SMAP1, G9a-methylated (human), sequence (Q8IYB5 whole entry, the tested form may be a part): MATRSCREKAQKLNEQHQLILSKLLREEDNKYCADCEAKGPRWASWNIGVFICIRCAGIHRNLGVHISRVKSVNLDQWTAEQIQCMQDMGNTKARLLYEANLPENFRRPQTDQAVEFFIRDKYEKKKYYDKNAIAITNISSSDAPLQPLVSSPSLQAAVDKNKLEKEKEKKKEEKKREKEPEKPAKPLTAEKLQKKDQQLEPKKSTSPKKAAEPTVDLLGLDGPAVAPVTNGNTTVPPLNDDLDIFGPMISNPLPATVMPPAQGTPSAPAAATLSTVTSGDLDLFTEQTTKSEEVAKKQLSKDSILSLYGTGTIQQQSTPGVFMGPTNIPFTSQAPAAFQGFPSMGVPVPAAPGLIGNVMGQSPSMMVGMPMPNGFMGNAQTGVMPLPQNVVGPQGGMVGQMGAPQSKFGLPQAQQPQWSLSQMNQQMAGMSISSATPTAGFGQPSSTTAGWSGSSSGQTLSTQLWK

[40] = biological target: TEAD4, G9a-methylated (human) (UniProt Q15561); assay: ProtoArray methylated with G9a SET domain

C1QTNF6-C1q and tumor necrosis factor related protein 6 (C1QTNF6), transcript variant 1 (human), sequence (Q9BXI9 47-278, change not shown): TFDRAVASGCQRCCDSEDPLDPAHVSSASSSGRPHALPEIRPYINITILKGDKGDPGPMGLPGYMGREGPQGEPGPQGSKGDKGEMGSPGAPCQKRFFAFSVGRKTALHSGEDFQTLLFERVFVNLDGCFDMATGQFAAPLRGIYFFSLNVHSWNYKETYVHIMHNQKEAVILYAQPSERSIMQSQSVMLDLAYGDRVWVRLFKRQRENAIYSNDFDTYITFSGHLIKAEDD

Work on 3× Flag-3×MBT (designed binder) yielded a GST Average SNR [1] of -0.38, a GST Average SNR [2] of 0.366 and a GST Average SNR [3] of -0.25. It also gave a GST Average SNR [4] of -0.778, a GST Average SNR [5] of -0.0425 and a GST Average SNR [6] of 0.081. The GST Average SNR [7] was 0.282, the GST Average SNR [8] was 1.41 and the GST Average SNR [9] was 1.06. The GST Average SNR [10] was 0.543, the GST Average SNR [11] was 1.13 and the GST Average SNR [12] was 0.954. For the same substance, the GST Average SNR [13] was 0.753, the GST Average SNR [14] was 1.09 and the GST Average SNR [15] was 1.5. For the same substance, the G9a Average SNR [16] was 16.6, the G9a Average SNR [17] was 15.4 and the G9a Average SNR [18] was 12.7. The G9a Average SNR [19] was 34.5, the G9a Average SNR [20] was 19.7 and the G9a Average SNR [21] was 14.1. For the same substance, the G9a Average SNR [22] was 13.6, the G9a Average SNR [23] was 11.6 and the G9a Average SNR [24] was 12.3. It also gave a G9a Average SNR [25] of 24.5, a G9a Average SNR [26] of 16.5 and a G9a Average SNR [27] of 19.2. For the same substance, the G9a Average SNR [28] was 15.8, the G9a Average SNR [29] was 25.5 and the G9a Average SNR [30] was 14.7. The G9a Average SNR [31] was 33.3, the G9a Average SNR [32] was 32.3 and the G9a Average SNR [33] was 14.1. It also gave a G9a Average SNR [34] of 17.5, a G9a Average SNR [35] of 21.5 and a G9a Average SNR [36] of 12.8. The G9a Average SNR [37] was 18.4, the G9a Average SNR [38] was 17.9 and the G9a Average SNR [39] was 21.5. For the same substance, the G9a Average SNR [40] was 16.9.
